± gives the standard error. This sample holds only a part of the variants without activity.
B1: glmS ribozyme (parent)
chain: AUAAAAGCGCCAGAACUACAGAAAUGUAGUUGACGAGGAGGAGGUUUAUCGAAUUUUCGGCGGAUGCCUCCAAA

Key:
Settings in all cases: with glucosamine-6-phosphate
glucosamine-6-phosphate [1] = variants of: B1; assay: self-cleavage kobs at 40 uM GlcN6P; higher = faster cleavage; RNA array
In short: (§1)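 E. coli RNA polymerase transcribed barcoded ribozyme variants in situ on sequenced MiSeq chips, which were tracked via a hybridised Cy3 probe at 37 °C. Tiles were imaged over ~14 h after glucosamine-6-phosphate (40 μM to 10 mM) in HEPES/KCl/Mg(OAc)2 buffer was flowed in. Normalised per-tile medians were fit to one- or two-exponential decays for kobs, and kcat and KM came from weighted Michaelis–Menten fits.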

glucosamine-6-phosphate [2] = variants of: B1; assay: self-cleavage kobs at 640 uM GlcN6P; higher = faster cleavage; RNA array
In short: as §1

glucosamine-6-phosphate [3] = variants of: B1; assay: self-cleavage kobs at 10000 uM GlcN6P; higher = faster cleavage; RNA array
In short: as §1

glucosamine-6-phosphate [4] = variants of: B1; assay: self-cleavage kobs at 160 uM GlcN6P; higher = faster cleavage; RNA array
In short: as §1

glucosamine-6-phosphate [5] = variants of: B1; assay: self-cleavage kobs at 2500 uM GlcN6P; higher = faster cleavage; RNA array
In short: as §1

AUAAAAGGGCCAGAACUACAGAAAUGUAGUUGACGAGGAGGAGGUUUAUCUAAUUUUCGGCGGAUGCCUCCAAA
self-cleavage kobs at 40 uM GlcN6P (glucosamine-6-phosphate [1]): < 1e-05 s⁻¹ | self-cleavage kobs at 640 uM GlcN6P (glucosamine-6-phosphate [2]): < 1e-05 s⁻¹ | self-cleavage kobs at 10000 uM GlcN6P (glucosamine-6-phosphate [3]): < 1e-05 s⁻¹

AUAAAAGGGCCAGAACUACAGAAAUGUAGUUGACGAGGAGGAGGUUUAUCGAAUUUUCGUCGGUUGCCUCCAAA
self-cleavage kobs at 40 uM GlcN6P (glucosamine-6-phosphate [1]): < 1e-05 s⁻¹ | self-cleavage kobs at 10000 uM GlcN6P (glucosamine-6-phosphate [3]): < 1e-05 s⁻¹

AUAAAAGGGUCAGAACUACAGAAAUGUAGUUGACGAGGAGGAGGUUUAUCGAAUUUUCGGCGGAUGCCUCCAAA
self-cleavage kobs at 40 uM GlcN6P (glucosamine-6-phosphate [1]): < 1e-05 s⁻¹ | self-cleavage kobs at 10000 uM GlcN6P (glucosamine-6-phosphate [3]): < 1e-05 s⁻¹

AUAAAAGGGCCAGAAUUACAGAAAUGUAGUUGACGAGGAGGAGGUUUAUCGAAUUUUCGGCGGAUGCCUCCAAA
self-cleavage kobs at 40 uM GlcN6P (glucosamine-6-phosphate [1]): < 1e-05 s⁻¹ | self-cleavage kobs at 160 uM GlcN6P (glucosamine-6-phosphate [4]): < 1e-05 s⁻¹ | self-cleavage kobs at 640 uM GlcN6P (glucosamine-6-phosphate [2]): < 1e-05 s⁻¹ | self-cleavage kobs at 2500 uM GlcN6P (glucosamine-6-phosphate [5]): < 1e-05 s⁻¹ | self-cleavage kobs at 10000 uM GlcN6P (glucosamine-6-phosphate [3]): < 1e-05 s⁻¹

AUAAAAGGGCCAUAACUACAGAAAUGUAGCUGACGAGGAGGAUGUUUAUCGAAUUUUCGGCGGAUGCCUCCAAA
self-cleavage kobs at 40 uM GlcN6P (glucosamine-6-phosphate [1]): < 1e-05 s⁻¹

AUAAAAGGGCCAGAACUACAGAAAUGUAGUUGACGAGGAGGACGUUUAUCGAAUUUUCGGCGGAUGCCUCCAAA
self-cleavage kobs at 40 uM GlcN6P (glucosamine-6-phosphate [1]): < 1e-05 s⁻¹ | self-cleavage kobs at 160 uM GlcN6P (glucosamine-6-phosphate [4]): < 1e-05 s⁻¹ | self-cleavage kobs at 640 uM GlcN6P (glucosamine-6-phosphate [2]): < 1e-05 s⁻¹ | self-cleavage kobs at 2500 uM GlcN6P (glucosamine-6-phosphate [5]): < 1e-05 s⁻¹ | self-cleavage kobs at 10000 uM GlcN6P (glucosamine-6-phosphate [3]): < 1e-05 s⁻¹

AUAAAAGGGCCAGAACUACAGAAAUGUAGUUGACGAGGAGGAGGUUUAUCGAAUUUUCGGCGGAUGUCUCCAAA
self-cleavage kobs at 40 uM GlcN6P (glucosamine-6-phosphate [1]): < 1e-05 s⁻¹ | self-cleavage kobs at 160 uM GlcN6P (glucosamine-6-phosphate [4]): < 1e-05 s⁻¹ | self-cleavage kobs at 640 uM GlcN6P (glucosamine-6-phosphate [2]): < 1e-05 s⁻¹ | self-cleavage kobs at 2500 uM GlcN6P (glucosamine-6-phosphate [5]): < 1e-05 s⁻¹

AUAAAAGGGCCAGAACUACAGAAAUGUAGUUGACGAGGAGGAGGUUUAUCGAAUUUUCGGGGGAUGCCUCCAAA
self-cleavage kobs at 40 uM GlcN6P (glucosamine-6-phosphate [1]): < 1e-05 s⁻¹ | self-cleavage kobs at 160 uM GlcN6P (glucosamine-6-phosphate [4]): < 1e-05 s⁻¹ | self-cleavage kobs at 640 uM GlcN6P (glucosamine-6-phosphate [2]): < 1e-05 s⁻¹ | self-cleavage kobs at 2500 uM GlcN6P (glucosamine-6-phosphate [5]): < 1e-05 s⁻¹ | self-cleavage kobs at 10000 uM GlcN6P (glucosamine-6-phosphate [3]): < 1e-05 s⁻¹

AUAAAAGGGCCAGAACUACAGAAAUGUAGUUUACGAGCAGGAGGUUUAUCUAAUUUUCGGCGGAUGCCUCCAAA
self-cleavage kobs at 40 uM GlcN6P (glucosamine-6-phosphate [1]): < 1e-05 s⁻¹

AUAAAAGGGCCAUAACUACAGAAAUGUAGUUGACGAGGAGGAGGUUUAUCCAAUUUUCGGCGGGUGCCUCCAAA
self-cleavage kobs at 40 uM GlcN6P (glucosamine-6-phosphate [1]): < 1e-05 s⁻¹

AUAAAAGGACCAGAACUACAGAAAUGUAUUUGACGAGGAGGAGGUUUAUCGAAUUAUCGGCGGGUGCCUACAAA
self-cleavage kobs at 40 uM GlcN6P (glucosamine-6-phosphate [1]): < 1e-05 s⁻¹

AUAAAAGGGCCAGAACUACAGAAAUGUAGUUGAUGAGGAGGUGGUUUAUCGAAUUUUCGGCGGAUGCCUCCAAA
self-cleavage kobs at 40 uM GlcN6P (glucosamine-6-phosphate [1]): < 1e-05 s⁻¹

AUAAAAGGGCCAGAACUACAGAAAUGUAGUUGACGAGCAGGAGGUUUAUAGAAUUUUCGGCGGAUUCCUCCAAA
self-cleavage kobs at 40 uM GlcN6P (glucosamine-6-phosphate [1]): < 1e-05 s⁻¹ | self-cleavage kobs at 160 uM GlcN6P (glucosamine-6-phosphate [4]): < 1e-05 s⁻¹ | self-cleavage kobs at 640 uM GlcN6P (glucosamine-6-phosphate [2]): < 1e-05 s⁻¹ | self-cleavage kobs at 2500 uM GlcN6P (glucosamine-6-phosphate [5]): < 1e-05 s⁻¹

AUAAAAGGUCCAGAACUACAGAAAUGUAGUUGACGAGGAGGAGGUUUAUCGAAUUUUCGGCGGAUGCCUCCAAA
self-cleavage kobs at 40 uM GlcN6P (glucosamine-6-phosphate [1]): < 1e-05 s⁻¹ | self-cleavage kobs at 640 uM GlcN6P (glucosamine-6-phosphate [2]): < 1e-05 s⁻¹ | self-cleavage kobs at 2500 uM GlcN6P (glucosamine-6-phosphate [5]): < 1e-05 s⁻¹

AUAAAAGGGCCAGAACUACAGAAAUGUAGUUGACGAGGAGGAGGUUUAUGGAAUUUUCGGCGGAUGCCUCCAAA
self-cleavage kobs at 40 uM GlcN6P (glucosamine-6-phosphate [1]): 0.000322 ± 0.00014 s⁻¹ | self-cleavage kobs at 160 uM GlcN6P (glucosamine-6-phosphate [4]): 0.000106 ± 2.1e-05 s⁻¹ | self-cleavage kobs at 640 uM GlcN6P (glucosamine-6-phosphate [2]): 0.00014 ± 3.4e-05 s⁻¹ | self-cleavage kobs at 2500 uM GlcN6P (glucosamine-6-phosphate [5]): 0.000123 ± 2.4e-05 s⁻¹ | self-cleavage kobs at 10000 uM GlcN6P (glucosamine-6-phosphate [3]): 0.000242 ± 7.8e-05 s⁻¹

AUAAAAGGGCCAGAACUACAGAAAUGUAGUUGACGAGGAGGAGGUUUAUUGAAUUUUCGGCGGAUGCCUCCAAA
self-cleavage kobs at 40 uM GlcN6P (glucosamine-6-phosphate [1]): < 1e-05 s⁻¹ | self-cleavage kobs at 160 uM GlcN6P (glucosamine-6-phosphate [4]): < 1e-05 s⁻¹ | self-cleavage kobs at 640 uM GlcN6P (glucosamine-6-phosphate [2]): < 1e-05 s⁻¹ | self-cleavage kobs at 2500 uM GlcN6P (glucosamine-6-phosphate [5]): < 1e-05 s⁻¹ | self-cleavage kobs at 10000 uM GlcN6P (glucosamine-6-phosphate [3]): < 1e-05 s⁻¹

AUAAAAGGGCCAGAACUACAGAAAUGUAGUUGACGAGGAGGAGGUUUGUCGAAAUUUCGGCGGAUGCCUCCAAA
self-cleavage kobs at 40 uM GlcN6P (glucosamine-6-phosphate [1]): < 1e-05 s⁻¹ | self-cleavage kobs at 2500 uM GlcN6P (glucosamine-6-phosphate [5]): < 1e-05 s⁻¹ | self-cleavage kobs at 10000 uM GlcN6P (glucosamine-6-phosphate [3]): < 1e-05 s⁻¹

AUAAAAGGGCCAGAACUACAGAAAUGUAGUUGACGAGGAGGAUGUUUAUCGAAUUUUCGGCGGAAGCCUCGAAA
self-cleavage kobs at 40 uM GlcN6P (glucosamine-6-phosphate [1]): < 1e-05 s⁻¹ | self-cleavage kobs at 640 uM GlcN6P (glucosamine-6-phosphate [2]): < 1e-05 s⁻¹ | self-cleavage kobs at 2500 uM GlcN6P (glucosamine-6-phosphate [5]): < 1e-05 s⁻¹ | self-cleavage kobs at 10000 uM GlcN6P (glucosamine-6-phosphate [3]): < 1e-05 s⁻¹

AUAAAAGGGCCAGAACUACAGAAAUGUAGUUGACGAGGAGGAGGUUUAUGGAGUUUUCGGCGGGUGCCUCCAAA
self-cleavage kobs at 40 uM GlcN6P (glucosamine-6-phosphate [1]): 0.000149 ± 6.6e-05 s⁻¹

AUAAAAGGGCCAGAACUACAGAAAUGUAGUUGACGUUGAGGAGGUUUAUCGUAAUUUCGGCGGAUGCCUCCAAA
self-cleavage kobs at 40 uM GlcN6P (glucosamine-6-phosphate [1]): < 1e-05 s⁻¹ | self-cleavage kobs at 10000 uM GlcN6P (glucosamine-6-phosphate [3]): < 1e-05 s⁻¹

AUAAAAGGGCAAGAACUACAGAAAUGUAGUUGACGAGGAGGAGGUUUAUGGAAUUUUCGGCGGAUGCCUCCAAA
self-cleavage kobs at 40 uM GlcN6P (glucosamine-6-phosphate [1]): 0.000193 ± 4.9e-05 s⁻¹

AUAAAAGGACCAGAACUACAGAAAUGUAGUUGACGAGGUGGAGGUUGAUCGAAUUUUCGGCGGAUGCUUCCAAA
self-cleavage kobs at 40 uM GlcN6P (glucosamine-6-phosphate [1]): < 1e-05 s⁻¹

AUAAAAGGGCCAGAACUACAGAAAUGUAAUUGACGAGGAGGAGGUUUAUCGAAUUUUCGGCGGAUGCCUCCAAA
self-cleavage kobs at 40 uM GlcN6P (glucosamine-6-phosphate [1]): < 1e-05 s⁻¹ | self-cleavage kobs at 160 uM GlcN6P (glucosamine-6-phosphate [4]): < 1e-05 s⁻¹ | self-cleavage kobs at 640 uM GlcN6P (glucosamine-6-phosphate [2]): < 1e-05 s⁻¹ | self-cleavage kobs at 2500 uM GlcN6P (glucosamine-6-phosphate [5]): < 1e-05 s⁻¹ | self-cleavage kobs at 10000 uM GlcN6P (glucosamine-6-phosphate [3]): < 1e-05 s⁻¹

AUAAAAGGGCCAAAACUACAGAAAUGUAGUUGACGAUGAGGAGCUUUAUCGAUUUUUCGGCGUAUGCCUCCAAA
self-cleavage kobs at 40 uM GlcN6P (glucosamine-6-phosphate [1]): < 1e-05 s⁻¹

AUAAAAGGGCGAGAACUACAGAAAUGUAGUUGACGAGGAGGAGGUUUAUCGAAUUUUCGGCGGAUGCCUCCAAA
self-cleavage kobs at 40 uM GlcN6P (glucosamine-6-phosphate [1]): < 1e-05 s⁻¹ | self-cleavage kobs at 160 uM GlcN6P (glucosamine-6-phosphate [4]): < 1e-05 s⁻¹ | self-cleavage kobs at 10000 uM GlcN6P (glucosamine-6-phosphate [3]): < 1e-05 s⁻¹

AUAAAAGGGCCAGAACUACAGAAAUGUAGUUGACGAGUAGGAGGUUUAUCGAAUUUUCGUCGGAUGCCUCCAAA
self-cleavage kobs at 40 uM GlcN6P (glucosamine-6-phosphate [1]): < 1e-05 s⁻¹

AUAAAAGGGCCAGAACUACAGAAAUGUAGUUGAUGAGGAGGAGGUUUAUCGAAUGUUCGGCGGAUGCCUCCAAA
self-cleavage kobs at 40 uM GlcN6P (glucosamine-6-phosphate [1]): < 1e-05 s⁻¹ | self-cleavage kobs at 10000 uM GlcN6P (glucosamine-6-phosphate [3]): < 1e-05 s⁻¹

AUAAAAGGGCCAGAACUACAGAAAUGUAUUUGCCGAGGAGGAGGUUUAUCGAAUUUUCGGCGGAUGCAUCCAAA
self-cleavage kobs at 40 uM GlcN6P (glucosamine-6-phosphate [1]): < 1e-05 s⁻¹ | self-cleavage kobs at 640 uM GlcN6P (glucosamine-6-phosphate [2]): < 1e-05 s⁻¹ | self-cleavage kobs at 10000 uM GlcN6P (glucosamine-6-phosphate [3]): < 1e-05 s⁻¹
